Laboratory results as given in patent US20250163149A1, “ANTI-RAGE ANTIBODY” (Swansea University, priority 2022, published 2025).

Columns and labels:
[1] = target: Human rRAGE, full-length RAGE recombinant protein from Merck (human) (UniProt Q15109); assay: SPR (Biacore T200), antibody amine-coupled to a CM5 chip as ligand, RAGE recombinant protein (Merck) as analyte, multi-cycle kinetics, 1:1 fit
[2] = target: synthetic peptide S155 of the RAGE V-domain (amino acids 39-65) (human); assay: SPR (Biacore T200), antibody amine-coupled to a CM5 chip as ligand, RAGE peptide S155 (BioRad) as analyte, multi-cycle kinetics, 1:1 fit; 'No steady state.'
Sequence of synthetic peptide S155 of the RAGE V-domain (amino acids 39-65) (human) (peptide, as listed by the source): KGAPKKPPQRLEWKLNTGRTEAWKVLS

[3] = target: synthetic peptide S155 of the RAGE V-domain (amino acids 39-65) (human); assay: ELISA, BSA-conjugated peptide S155 on the plate, two-fold dilutions of antibody, HRP anti-mouse, OD 450 nm
RAGE [4] = target: RAGE (Homo sapiens, UniProt Q15109); assay: Western blot on protein extracts from human healthy tissues; details: brain, breast, kidney, liver, lung, ovary, pancreas, spleen and uterus
Sequence of RAGE (Q15109 23-317 limits assumed): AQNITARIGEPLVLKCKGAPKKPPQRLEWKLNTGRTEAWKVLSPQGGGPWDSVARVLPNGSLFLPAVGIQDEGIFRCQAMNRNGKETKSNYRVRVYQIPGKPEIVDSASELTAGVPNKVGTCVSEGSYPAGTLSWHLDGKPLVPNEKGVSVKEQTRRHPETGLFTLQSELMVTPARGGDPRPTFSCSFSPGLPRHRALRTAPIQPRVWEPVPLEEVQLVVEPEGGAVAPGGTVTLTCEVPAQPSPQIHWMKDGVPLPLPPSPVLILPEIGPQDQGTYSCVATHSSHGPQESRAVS
Sequence of RAGE (Homo sapiens, UniProt Q15109) (Q15109 23-404): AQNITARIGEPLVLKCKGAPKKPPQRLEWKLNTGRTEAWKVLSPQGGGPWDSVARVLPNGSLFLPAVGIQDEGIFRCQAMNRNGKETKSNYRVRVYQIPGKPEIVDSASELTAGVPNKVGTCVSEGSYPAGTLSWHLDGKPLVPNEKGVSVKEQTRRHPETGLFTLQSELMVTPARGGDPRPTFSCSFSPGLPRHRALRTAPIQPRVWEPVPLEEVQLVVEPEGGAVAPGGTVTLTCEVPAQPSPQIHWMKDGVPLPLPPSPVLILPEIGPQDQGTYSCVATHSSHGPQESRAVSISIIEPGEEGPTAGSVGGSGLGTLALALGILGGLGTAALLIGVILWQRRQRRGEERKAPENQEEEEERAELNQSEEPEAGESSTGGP

RAGE [5] = assay: Western blot on protein extracts from ovarian cancer cell lines (OCCL); design: species or system human; details: whole-cell extracts of SKOV3, OVCAR3, A2780 and cisplatin-resistant lines; antibody 1 μg/mL
Method: Confluent cultures of cells were lysed in ice cold RIPA buffer (Sigma-Aldrich), whole-cell protein extracts were quantified with DC protein assay, 30 μg/lane were resolved by SDS-PAGE on TGX precast gels, transferred to mini PDVF membranes, blocked 1 h at RT in 5% Bovine Serum Albumin (BSA) in TBST (Tris Buffered Saline, 0.1% Tween-20) and incubated o/n at 4° C. in the same solution with 1 μg/mL of mA9 (sc-365154, Santa Cruz Biotechnology) antibody, mHA9 antibody or hHA9 antibody, or GAPDH (Santa Cruz Biotechnology) as loading control. Membranes were then washed with TBST and incubated 1 h at RT with 0.1 μg/mL of IgG horseradish peroxidase secondary antibody (GE Healthcare) or […] of Goat F(ab′) 2 Anti-Mouse IgG-F(ab′) 2 horseradish peroxidase secondary antibody (Abcam). Target proteins were visualised after incubation with Clarity Western ECL Substrate and imaged using a ChemiDoc System Bio-Rad Imager. Bands were quantified with ImageLab software. Unless stated all the materials specified above were obtained from Bio-Rad Laboratories.

[6] = target: T1, RAGE recombinant protein (Human rRAGE) (Homo sapiens, UniProt Q15109); assay: Surface plasmon resonance binding kinetics (Biacore T200), recombinant protein analyte; details: analyte RAGE recombinant protein, or RAGE synthetic peptide, not separated
T1 construct: Human rRAGE=Full-length RAGE recombinant protein from Merck; purchased Merck
T1 sequence (Q15109 23-404): as above
Method: For on-rate and off-rate screening, Biacore™ T200 system (Cytiva, Uppsala, Sweden) was used to perform SPR analysis with 1×HBS-EP+ buffer (0.01M Hepes, 0.15M NaCl, 0.003M ethylenediaminetetraacetic acid, and 0.05% Surfactant P20, pH 7.4) (BR100669) used as sample and running buffer. The analysis temperature at the sensor chip surface and within the compartment was set to 25° C. Firstly, pH scouting with 10 mM sodium acetate buffer 4.0 (BR-1003-49), 10 mM sodium acetate buffer 4.5 (BR-1003-50), 10 mM sodium acetate buffer 5.0 (BR-1003-51) and 10 mM sodium acetate buffer 5.5 (BR-1003-52) was performed to identify the optimal pH required for ligand (α-RAGE antibodies) immobilization. This was followed by diluting the ligand with the appropriate Acetate buffer to at least 10 μg/mL. The ligand immobilization on the surface Series S Sensor Chip CM5 (29-1496-03, Cytiva) was performed using the Amine Coupling Kit (BR100050, Cytiva) containing 1-Etyhyl-3-(3-dimethylaminopropyl)-carbodiimide hydrochloride (EDC), N-Hydroxysuccinimide (NHS) and 1.0M ethanolamine-HcL PH 8.5 in accordance with the manufacturer's instructions. For each experimental run, the ligand was immobilized in flow cells 2 or 4 while flow cells 1 or 3 were left unmodified. Flow cells 2 and 4 were used as active flow cells while flow cells 1 and 3 were used as reference flow cells. Ligand immobilization levels were typically within the range 500-900 RU for the kinetic experiments and injected with a flow rate of 10 μL/min and contact time of 300 s. Analytes (RAGE recombinant protein and synthetic peptides) were injected for 120 s with a flow rate of 30 μL/min and dissociation time of 600 s run in order of increasing concentration over the reference and active flow cells using a multi-cycle kinetic approach with five-seven concentration range. Following each binding cycle, the surface was regenerated with a 30 s injection of 10 mM Glycine-HcL, pH 2.5 regeneration solution (BR-1003-56), removing the bound antibody with a contact time of 30 s, flow rate of 30 μL/min and a stabilization period of Os. […]

[7] = target: T2, RAGE synthetic peptide (S155) (Homo sapiens, UniProt Q15109); assay: ELISA screening of purified anti-RAGE antibody clones; assay type: binding; details: BSA-conjugated peptide S155; serial dilutions of antibody; 6 murine clones compared
T2 construct: purchased Biorad; host or cells: chemical synthesis
Method: A 96-well plate was coated with 5 μg/ml of RAGE synthetic peptides or RAGE recombinant protein diluted in phosphate-buffered saline (pH 7.4) overnight at 4° C. The solution was removed, washed with PBS-Tween (PBST) and the plate was blocked with ELISA ultrablock buffer (Biorad) for 1 h at room temperature. After blocking, the plate was washed with PBST and a range of concentrations of α-RAGE antibodies was applied to the plate for 2 h at room temperature. The plate was washed thoroughly with PBST and incubated with HRP-conjugated anti-mouse antibodies diluted 1:1000 in PBS-Tween. After washes with PBST, TMB Core+ substrate solution (Biorad) was added to each well and incubated at room temperature for 30 minutes. 0.2M H2SO4 was used as a stop solution. Absorbance at 450 nm was measured in a Biorad absorbance microplate reader.

SKOV3 cells = assay: Internalisation assay on SKOV3 cells; assay type: cell-based, human; details: 4 h or 24 h at 37° C., compared with other clones and AB11451
Method: To screen internalization capacity and traffic to lysosomes of α-RAGE antibodies, all the primary antibodies used in the screening were conjugated to pHAb Amine Reactive Dye following manufacturer's instructions (Promega, UK, Cat. No. G983). This type of dye emits fluorescence when traffics to acidic environments (late endosome and lysosome). For this purpose, 1.5×10^4 SKOV3 cells/well were seeded in 8-well chamber slides (Ibidi) in 300 μl of stripped medium and cultured for 24 h in a humidified, 5% CO2 in air atmosphere incubator at 37° C. After culture, cells were washed in pre-warmed (37° C.) Dulbecco's phosphate buffered saline (DPBS) and slides placed on ice. Cells were treated with control medium or medium containing one of the α-RAGE antibodies conjugated to pH-dye at 10 μg/ml, and the 8-well chamber slides were incubated on ice for 30 minutes. Slides were then transferred to the incubator at 37° C. for 4 h or 24 h. After internalization time, cells were washed in DPBS, fixed in 4% paraformaldehyde for 20 min and permeabilized with 0.1% Triton X-100 (Sigma) for 10 minutes at 4° C. Cells were washed with PBS extensively between all steps, counterstained before imaging with Hoechst (Life Technologies™) and imaged using a LSM710 confocal fluorescence microscopy system (Zeiss, UK). Unconjugated α-RAGE antibodies were also used in the internalisation assay. In this case were visualized using Alexa-fluorophore secondary antibodies as described in the immunofluorescence method.

Sequence of Human rRAGE, full-length RAGE recombinant protein from Merck (human) (Q15109 23-404 limits assumed): as the sequence (Q15109 23-404) above

Kd [1] [µM]	koff [1] [s⁻¹]	kon [1] [M⁻¹ s⁻¹]	Kd [2] [µM]	koff [2] [s⁻¹]	kon [2] [M⁻¹ s⁻¹]	EC50 (read off the curve) [3] [mg/L]	RAGE expression detected in human healthy tissues (RAGE [4])	affinity interaction by SPR (summary statement) [6]	Molecule	RAGE isoform detected by western blot (RAGE [5])	binding to immobilised RAGE synthetic peptide [7]	uptake (internalisation), secondary antibody detection (SKOV3 cells)
6.94	0.00561	808	0.2	0.00515	25000	1	–	–	murine ID9 anti-RAGE monoclonal antibody (antibody, part only; not given: Light chain variable region, V domains shown, part only) VH: QVTLKESGPGILKPSQTLSLTCSFSGFSLSTSGMGVGWIRQPSGKGLEWLAHIWWDDDKYYKPSLKSQVTISKDTSRNQVFLKITSVDTADTATYYCARSRYYGSSGMDYWGQGTSVTVSS	–	–	–
–	–	–	–	–	–	–	absent or very low expression	weak affinity interaction	mHA9: murine version of anti-RAGE antibody clone HA9 (antibody, V domains shown) VH: EVKLVETGGGLVQPGRPMKLSCVASGFTLSDHWMNWVRQSPEKGLEWVAQIRNRPYKFEKYYSDSVKGRFTISRDDSKNSVYLQMNNLRAEDMGIYYCSSYRYGLAYWGQGTLVTVST VL: DNLLTQSPAILSVSPGERVSFSCRASQTIDTRIHWYQQRKNGSPRLLIRYISESLSGIPSRFSGSGSGTEFTLTINSVESEDIADYYCQQTESWPITFGSGTKLEIK	able to detect expression levels of full-length transmembrane RAGE	highest affinity for the peptide sequence antigen	–
–	–	–	–	–	–	–	–	–	HA9: anti-RAGE monoclonal antibody clone, VH SEQ ID NO: 7, VL SEQ ID NO: 8, raised against RAGE aa 39-65 (antibody, V domains shown) VH: EVKLVETGGGLVQPGRPMKLSCVASGFTLSDHWMNWVRQSPEKGLEWVAQIRNRPYKFEKYYSDSVKGRFTISRDDSKNSVYLQMNNLRAEDMGIYYCSSYRYGLAYWGQGTLVTVST VL: DNLLTQSPAILSVSPGERVSFSCRASQTIDTRIHWYQQRKNGSPRLLIRYISESLSGIPSRFSGSGSGTEFTLTINSVESEDIADYYCQQTESWPITFGSGTKLEIK	–	best binding response to the antigen	highest uptake levels
